Experiment [1] has as its target T1, human serum albumin (HSA) (human, UniProt P02768 25-609).
T1 construct: The assays used bought HSA (Sigma #A37812 in the SPR work); also called HuSA
The experiment in a line: SPR (Biacore 8K): HSA amine-coupled on a CM5 chip, AFFIMER as analyte, pH 7.4, 1:1 Langmuir fit. Here is the method:
(§1) For the HSA binding kinetic analysis, HSA (Sigma #A37812) was immobilized on a CM5 chip surface using amine coupling in 10 mM sodium acetate (pH 5.0) (Cytvia). […] The chip surface was regenerated with 3 mM NaOH for 20 seconds at a flow rate of 20 μl/min. The kinetic data was blank subtracted and fit to a 1:1 Langmuir binding model (BIAcore evaluation software; Cytiva).
In general terms: Surface plasmon resonance follows binding to a sensor surface in real time, without labels.

The target of experiment [2] is T2, PD-L1 on cells (NCI-H441 cells; aAPC PD-L1/CHO-K1 cells, Promega) (human, UniProt Q9NZQ7 19-290).
T2 construct: whole, on cells; also called human PD-L1-expressing CHO-K1 cells; H441 cells endogenously expressing PD-L1
T2 sequence (Q9NZQ7 19-290): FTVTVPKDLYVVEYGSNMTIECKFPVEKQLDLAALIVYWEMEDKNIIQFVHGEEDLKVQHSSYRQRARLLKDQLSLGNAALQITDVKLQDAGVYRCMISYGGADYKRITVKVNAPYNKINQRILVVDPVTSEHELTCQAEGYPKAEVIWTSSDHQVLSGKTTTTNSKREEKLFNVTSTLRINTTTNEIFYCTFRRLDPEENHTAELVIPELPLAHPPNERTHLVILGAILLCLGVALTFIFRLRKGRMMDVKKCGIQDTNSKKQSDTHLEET
The experiment in a line: flow cytometry on PD-L1 expressing cells. Background: In flow cytometry, cells or beads pass a laser one at a time.

Experiment [3] has as its target T1, human serum albumin (HSA). The experiment in a line: HSA binding ELISA: HSA coated, bound AFFIMER detected with biotinylated anti-cystatin A antibody and streptavidin-HRP. The method, then: Plates were washed and AFFIMER® polypeptides were detected using streptavidin-HRP for 30 min. After the last washing step, the TMB substrate was added for the development of the experiment and plates were read at 450 nm. The EC₅₀ was then calculated using the interpolated non-linear four-parameters standard curve.

In experiment [4] the target is T1, human serum albumin (HSA). The experiment in a line: SPR (Biacore 8K): HSA amine-coupled on a CM5 chip, AFFIMER as analyte, pH 6.0, 1:1 Langmuir fit. Here is the method: as §1
For experiment [5], the target named is T1, human serum albumin (HSA). The experiment in a line: SPR (Biacore) kinetics: HSA immobilised on a CM5 chip, AFFIMER as analyte, pH 7.4.
The target in experiment [6] is T3, human PD-L1-Fc (R&D Systems) (human, UniProt Q9NZQ7 19-239).
T3 construct: Bought reagent; also called huPD-L1-Fc; huPD-L1; not shown: Fc part of the bought fusion
T3 sequence (Q9NZQ7 19-239 limits assumed): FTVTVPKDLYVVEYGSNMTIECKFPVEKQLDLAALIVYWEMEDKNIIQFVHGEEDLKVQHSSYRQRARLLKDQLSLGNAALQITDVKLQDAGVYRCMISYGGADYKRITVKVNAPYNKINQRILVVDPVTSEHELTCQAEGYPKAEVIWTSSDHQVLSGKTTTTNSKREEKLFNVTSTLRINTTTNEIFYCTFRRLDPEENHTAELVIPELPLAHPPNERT
The experiment is described as follows: SPR (Biacore) kinetics: human PD-L1-Fc immobilised on a CM5 chip, AFFIMER as analyte.

The target of experiment [7] is T1, human serum albumin (HSA). The experiment is described as follows: HSA binding ELISA: HSA coated, anti-cystatin A detection.

T1 sequence (P02768 25-609): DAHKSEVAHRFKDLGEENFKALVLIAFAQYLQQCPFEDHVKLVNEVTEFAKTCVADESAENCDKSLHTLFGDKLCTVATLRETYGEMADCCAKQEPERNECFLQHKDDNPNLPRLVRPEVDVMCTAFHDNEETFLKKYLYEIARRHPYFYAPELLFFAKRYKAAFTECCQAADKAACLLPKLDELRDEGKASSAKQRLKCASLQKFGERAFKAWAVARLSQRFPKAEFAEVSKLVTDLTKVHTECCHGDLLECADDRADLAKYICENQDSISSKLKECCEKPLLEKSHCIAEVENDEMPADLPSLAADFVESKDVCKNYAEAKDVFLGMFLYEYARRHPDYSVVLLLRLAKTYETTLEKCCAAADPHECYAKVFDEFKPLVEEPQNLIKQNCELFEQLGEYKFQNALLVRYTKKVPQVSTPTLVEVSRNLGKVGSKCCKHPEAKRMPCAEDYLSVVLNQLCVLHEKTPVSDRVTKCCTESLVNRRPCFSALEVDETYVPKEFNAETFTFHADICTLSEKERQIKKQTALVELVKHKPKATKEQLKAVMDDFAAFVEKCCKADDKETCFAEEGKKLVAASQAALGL

B1: DC XT46 (trimer in-line fusion XT control) (designed binder)
chain: MIPGGLSEAKPATPEIQEIVDKVKPQLEEKTGETYGKLEAVQYKTQVVGGGGGGGGGGTNYYIKVRAGDNKYMHLKVFKSLGGGGGGGGGEDLVLTGYQVDKNKDDELTGFAEAAAKEAAAKEAAAKEAAAKEAAAKEAAAKMIPGGLSEAKPATPEIQEIVDKVKPQLEEKTGETYGKLEAVQYKTQVVGGGGGGGGGGTNYYIKVRAGDNKYMHLKVFKSLGGGGGGGGGEDLVLTGYQVDKNKDDELTGFAEAAAKEAAAKEAAAKEAAAKEAAAKEAAAKMIPRGLSEAKPATPEIQEIVDKVKPQLEEKTNETYGKLEAVQYKTQVLANFFQRRWPGSTNYYIKVRAGDNKYMHLKVFNGPWKFRNTDRGADRVLTGYQVDKNKDDELTGF
For the molecule B1, in experiment [1], the affinity, expressed as Kd, was 1.45 nM; the koff (usually the first-order rate constant of dissociation) stood at 0.00259 s⁻¹; the kon (in general, a measure of how fast the partners come together) was 1.79e+06 M⁻¹ s⁻¹. For the same molecule, in experiment [2], the binding result was “no binding”. The EC50 (in general, the concentration giving half of the maximal effect) in experiment [3] was found to be 0.04 nM. For the same molecule, in experiment [4], the Kd (usually the constant that tells how readily two partners part at equilibrium) was determined as 1.28 nM, the koff was 0.00205 s⁻¹ and the kon amounted to 1.61e+06 M⁻¹ s⁻¹.

B2: Clone 80 XT41 (designed binder)
chain: MIPGGLSEAKPATPEIQEIVDKVKPQLEEKTGETYGKLEAVQYKTQVVRRKHFPQWPGTNYYIKVRAGDNKYMHLKVFKSLDLQPREVFQEDLVLTGYQVDKNKDDELTGFGGGGSGGGGSGGGGSGGGGSGGGGSGGGGSMIPRGLSEAKPATPEIQEIVDKVKPQLEEKTNETYGKLEAVQYKTQVLANFFQRRWPGSTNYYIKVRAGDNKYMHLKVFNGPWKFRNTDRGADRVLTGYQVDKNKDDELTGFGGGGSGGGGSGGGGSGGGGSGGGGSGGGGSMIPRGLSEAKPATPEIQEIVDKVKPQLEEKTNETYGKLEAVQYKTQVLANFFQRRWPGSTNYYIKVRAGDNKYMHLKVFNGPWKFRNTDRGADRVLTGYQVDKNKDDELTGF
notes: One Clone 80 and two HSA-41 units joined by flexible (G4S)6 linkers; Made in E. coli; No tag is stated for this construct
In experiment [5], B2 showed a Kd of 0.18 nM, a koff of 0.00189 s⁻¹ and a kon of 1.05e+07 M⁻¹ s⁻¹. In experiment [6], the Kd was found to be 0.172 nM, the dissociation rate constant (koff) was 0.000212 s⁻¹ and the on-rate (kon) stood at 1.24e+06 M⁻¹ s⁻¹.

B3: HSA-41 (anti-serum albumin AFFIMER® polypeptide, monomer) (designed binder)
chain: MIPRGLSEAKPATPEIQEIVDKVKPQLEEKTNETYGKLEAVQYKTQVLANFFQRRWPGSTNYYIKVRAGDNKYMHLKVFNGPWKFRNTDRGADRVLTGYQVDKNKDDELTGF
notes: No tags are stated; also called HSA-41 monomer; XT polypeptide
B3: in experiment [5], the affinity, expressed as Kd, was 1.07 nM; the koff turned out to be 0.00436 s⁻¹; the kon worked out at 4.06e+06 M⁻¹ s⁻¹. This molecule registered an EC50 in experiment [7] of 0.85 nM.

B4: Clone 80 XT40 (designed binder)
chain: MIPGGLSEAKPATPEIQEIVDKVKPQLEEKTGETYGKLEAVQYKTQVVRRKHFPQWPGTNYYIKVRAGDNKYMHLKVFKSLDLQPREVFQEDLVLTGYQVDKNKDDELTGFAEAAAKEAAAKEAAAKEAAAKEAAAKEAAAKMIPRGLSEAKPATPEIQEIVDKVKPQLEEKTNETYGKLEAVQYKTQVLANFFQRRWPGSTNYYIKVRAGDNKYMHLKVFNGPWKFRNTDRGADRVLTGYQVDKNKDDELTGFFAEAAAKEAAAKEAAAKEAAAKEAAAKEAAAKMIPGGLSEAKPATPEIQEIVDKVKPQLEEKTGETYGKLEAVQYKTQVVRRKHFPQWPGTNYYIKVRAGDNKYMHLKVFKSLDLQPREVFQEDLVLTGYQVDKNKDDELTGF
notes: HSA-41 sits in the middle position between two Clone 80 units, joined by rigid A(EAAAK)6 linkers; Made in E. coli; No tag is stated for this construct
With B4, in experiment [5], the Kd amounted to 1.54 nM, the koff worked out at 0.00273 s⁻¹ and the association rate constant (kon) was 1.77e+06 M⁻¹ s⁻¹. For the same molecule, in experiment [6], the Kd came to 0.0668 nM, the koff turned out to be 9.33e-05 s⁻¹ and the kon is 1.4e+06 M⁻¹ s⁻¹.

B5: DC XT45 (dimer in-line fusion XT control) (designed binder)
chain: MIPGGLSEAKPATPEIQEIVDKVKPQLEEKTGETYGKLEAVQYKTQVVGGGGGGGGGGTNYYIKVRAGDNKYMHLKVFKSLGGGGGGGGGEDLVLTGYQVDKNKDDELTGFAEAAAKEAAAKEAAAKEAAAKEAAAKEAAAKMIPRGLSEAKPATPEIQEIVDKVKPQLEEKTNETYGKLEAVQYKTQVLANFFQRRWPGSTNYYIKVRAGDNKYMHLKVFNGPWKFRNTDRGADRVLTGYQVDKNKDDELTGF
In experiment [1], B5 displayed a Kd of 1.08 nM, a koff of 0.00272 s⁻¹ and a kon of 2.52e+06 M⁻¹ s⁻¹. Also, in experiment [2], the binding result is “no binding”. Further, in experiment [3], a half-maximal response (EC50) required 0.02 nM. In experiment [4], binding was characterised by a dissociation constant (Kd) of 7.36 nM, the koff stood at 0.00276 s⁻¹ and the kon turned out to be 375000 M⁻¹ s⁻¹.

(Values after US20240409638A1 (AVACTA LIFE SCIENCES, published 2024).)
